Test results taken from publication PMC7809043.

Molecular target: mouse Atg7 (mAtg7) (mouse) (UniProt Q9D906)
Sequence (Q9D906 whole entry): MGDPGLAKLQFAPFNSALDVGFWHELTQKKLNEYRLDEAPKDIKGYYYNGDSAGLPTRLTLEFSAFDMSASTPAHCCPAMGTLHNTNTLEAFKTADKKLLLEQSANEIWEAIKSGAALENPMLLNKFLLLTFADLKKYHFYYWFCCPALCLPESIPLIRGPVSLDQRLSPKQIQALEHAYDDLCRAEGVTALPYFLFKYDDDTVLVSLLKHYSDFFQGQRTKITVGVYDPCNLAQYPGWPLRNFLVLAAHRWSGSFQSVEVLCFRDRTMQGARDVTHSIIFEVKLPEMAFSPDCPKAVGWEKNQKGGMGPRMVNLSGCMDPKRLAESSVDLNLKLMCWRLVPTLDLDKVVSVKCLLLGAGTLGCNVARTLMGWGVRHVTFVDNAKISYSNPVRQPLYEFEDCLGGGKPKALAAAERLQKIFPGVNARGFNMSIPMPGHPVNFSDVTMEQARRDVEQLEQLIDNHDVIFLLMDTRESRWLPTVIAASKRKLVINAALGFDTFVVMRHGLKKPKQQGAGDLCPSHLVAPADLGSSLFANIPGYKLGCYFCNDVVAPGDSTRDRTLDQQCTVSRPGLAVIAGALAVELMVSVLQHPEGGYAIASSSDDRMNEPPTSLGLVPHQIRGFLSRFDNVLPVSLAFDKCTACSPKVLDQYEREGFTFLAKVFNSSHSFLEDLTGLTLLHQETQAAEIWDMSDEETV

Row | Substance | LC3B-hAtg3^∆90-190 thioester intermediate formed, after 1 h [%] | LC3B–PE conjugase activity compared to the wild type (in vitro conjugation assay) [%] | LC3B-hAtg3 thioester intermediate formed, within 30 min [%]
1 | hAtg3^∆90-190 (from UniProt Q9NT62 1-314) (enzyme) | 25 | 50 | –
2 | human Atg3 (hAtg3), wild type (from UniProt Q9NT62 1-314) (enzyme) | – | – | 70
